Measured values taken from US10154881B2, “Methods and compositions for tissue adhesives” (ARIZONA BOARD OF REGENTS FOR AND ON BEHALF OF ARIZONA STATE …, priority 2012, dated 2018).
“And” between values parts separate entries of the source, which are not always exact repeats. Equal entries are not always repeated.

Assay: Determination of transition temperature (Tt) of ELPs by absorbance at 610 nm
Format: physicochemical
Details: 0.5× PBS; temperature at which absorbance at 610 nm reaches 50% of maximum
Experimental: The transition temperatures (Tt) of C8ELP and C12ELP were characterized by monitoring the absorbance at 610 nm as a function of temperature with an UV-visible spectrophotometer (Beckman DU530) in 0.5× phosphate-buffered solution (PBS). Briefly, 1 ml of C8ELP (0.5 mg/ml in 0.5×PBS) and 1 ml of C12ELP (1 mg/ml in 0.5×PBS) were prepared and placed in 1.5-ml disposable cuvettes. The temperature of CnELP (n: the number of cysteines in the ELP repeat sequence; n=8/12) was tuned by placing the CnELP-contained cuvette into a Precision 288 Digital Water Bath (Thermo Scientific) and was recalibrated by FLUKE 54 II (Type K) thermometer before absorbance measurement. The absorbance of CnELP was monitored at 610 nm with an UV-visible spectrophotometer (Beckman DU530) immediately after withdrawing the cuvette out of the water bath. The Tt is defined as the temperature at which the absorbance of CnELP solution reaches 50% of the maximum value. The temperature response of the C8ELP and C12ELP indicated Tt values of 31.3 and 30.5° C., respectively.

| Molecule | Transition temperature (Tt) |
| --- | --- |
| C12ELP: Elastin-like polypeptide with 12 cysteine residues, SEQ ID NO:2, expressed in E. coli (protein, elastin-like polypeptide) MVSACRGPGVGVPGVGVPGVGVPGVGVPGVGVPGVGVPGVGVPGVGVPGVGVPGVGVPGVGVPGVGVPGVGVPGVGVPGVGVPGVGVPGVGVPGVGVPGVGVPGVGVPGVGVPGVGVPGVGVPGVGVPGVGVPGVGVPGVGVPGVGVPGVGVPGVGVPGVGVPGVGVPGVGVPGVGVPGVGVPGVGVPGVGVPGVGVPGVGVPGVGVPG | 30.4 °C and 30.5 °C |
| C8ELP: Elastin-like polypeptide with 8 cysteine residues, SEQ ID NO:1, expressed in E. coli (protein, elastin-like polypeptide) MVSACRGPGVGVPGVGVPGVGVPGVGVPGVGVPGVGVPGVGVPGVGVPGVGVPGVGVPGVGVPGVGVPGVGVPGVGVPGVGVPGVGVPGVGVPGVGVPGVGVPGVGVPGVGVPGVGVPGVGVPGVGVPGVGVPGVGVPGVGVPGVGVPGVGVPGVGVPGVGVPGVGVPGVGVPGVGVPGVGVPGVGVPGVGVPGVGVPGVGVPGVGVPGVGVPGVGVPGVGVPGCGVPGVGVPGVGVPGVGVPGVGVPGCGVPGVGVPGVGVPGVGVPGVGVPGCGVPGVGVPGVGVPGVGVPGVGVPGCGVPGVGVPGVGVPGVGVPGVGVPGCGVPGVGVPGVGVPGVGVPGVGVPGCGVPGVGVPGVGVPGVGVPGVGVPGCGVPGVGVPGVGVPGVGVPGVGVPGCGVPGVGVPGWP | 31.3 °C |
